Assay results published in article PMC9482650, “Quantitative fragmentomics allow affinity mapping of interactomes” (Nature Communications, 2022).

What follows are binders tested against T1, GRIP1_4, Q9Y3R0 (assay: holdup assay). Conditions: plain residues with an end cap or a label only (N-terminal biotin on a linker: ado-ado).
T1 sequence (Q9Y3R0 467-571, limits assumed, looked up): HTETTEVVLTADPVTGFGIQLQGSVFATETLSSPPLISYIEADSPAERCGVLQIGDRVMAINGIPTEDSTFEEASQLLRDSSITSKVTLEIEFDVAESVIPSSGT
Design: key: below the threshold = too weak to quantify, mostly under pKd 3.1 to 4
PPYRHRNTVV [ERBB4, Q15303] was tested, and the pKd was “below the threshold”.
With YNNCLEILRV [DCAF7, P61962] the pKd was “below the threshold”.

What follows are binders tested against T2, DLG3_2, Q92796 (assay: holdup assay). Conditions: plain residues with an end cap or a label only (N-terminal biotin on a linker: ado-ado).
T2 sequence (Q92796 221-321, limits assumed, looked up): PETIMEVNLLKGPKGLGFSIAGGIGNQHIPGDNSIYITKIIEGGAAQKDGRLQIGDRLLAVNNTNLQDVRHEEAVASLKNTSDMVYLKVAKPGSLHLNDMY
Design: key: below the threshold = too weak to quantify, mostly under pKd 3.1 to 4
PPYRHRNTVV [ERBB4, Q15303] showed a pKd of 4.79.
With YNNCLEILRV [DCAF7, P61962] the pKd was “below the threshold”.

What follows are binders tested against HTRA1, Q92743 (assay: holdup assay). Conditions: plain residues with an end cap or a label only (N-terminal biotin on a linker: ado-ado).
Sequence of HTRA1, Q92743 (Q92743 360-477): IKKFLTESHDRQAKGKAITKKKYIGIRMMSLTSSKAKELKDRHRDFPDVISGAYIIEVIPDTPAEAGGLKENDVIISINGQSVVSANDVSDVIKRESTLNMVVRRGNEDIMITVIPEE
Design: key: below the threshold = too weak to quantify, mostly under pKd 3.1 to 4
In the case of PPYRHRNTVV [ERBB4, Q15303], the pKd is reported as 4.13.
For YNNCLEILRV [DCAF7, P61962], the pKd was 5.22.

The binders below were run against TJP1_3, Q07157 (assay: holdup assay). Conditions: plain residues with an end cap or a label only (N-terminal biotin on a linker: ado-ado).
Sequence of TJP1_3, Q07157 (Q07157 416-512): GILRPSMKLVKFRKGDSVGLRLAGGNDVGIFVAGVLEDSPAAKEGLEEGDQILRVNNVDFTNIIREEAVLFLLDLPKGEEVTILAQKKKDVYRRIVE
Design: key: below the threshold = too weak to quantify, mostly under pKd 3.1 to 4
In the case of PPYRHRNTVV [ERBB4, Q15303], the pKd is reported as “below the threshold”.
In the case of YNNCLEILRV [DCAF7, P61962], the pKd is reported as “below the threshold”.

These binders were tested against T3, RHPN1, Q8TCX5 (assay: holdup assay). Conditions: plain residues with an end cap or a label only (N-terminal biotin on a linker: ado-ado).
T3 sequence (Q8TCX5 508-602, limits assumed, looked up): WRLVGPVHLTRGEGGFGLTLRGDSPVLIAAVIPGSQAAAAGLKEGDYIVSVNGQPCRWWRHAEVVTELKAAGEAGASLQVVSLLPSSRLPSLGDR
Design: key: below the threshold = too weak to quantify, mostly under pKd 3.1 to 4
Binder PPYRHRNTVV [ERBB4, Q15303] has a pKd of 3.6.
With YNNCLEILRV [DCAF7, P61962] the pKd was “below the threshold”.

Each binder was assayed against T4, PARD3B_1, Q8TEW8 (assay: holdup assay). Conditions: plain residues with an end cap or a label only (N-terminal biotin on a linker: ado-ado).
T4 sequence (Q8TEW8 196-299, limits assumed, looked up): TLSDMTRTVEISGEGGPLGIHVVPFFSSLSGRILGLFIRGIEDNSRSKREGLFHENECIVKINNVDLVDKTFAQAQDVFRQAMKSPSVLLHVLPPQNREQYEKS
Design: key: below the threshold = too weak to quantify, mostly under pKd 3.1 to 4
For PPYRHRNTVV [ERBB4, Q15303], the pKd was “below the threshold”.
YNNCLEILRV [DCAF7, P61962] was tested, and the pKd was 4.01.

These binders were tested against T5, MPDZ_10, O75970 (assay: holdup assay). Conditions: plain residues with an end cap or a label only (N-terminal biotin on a linker: ado-ado).
T5 sequence (O75970 1624-1722, limits assumed, looked up): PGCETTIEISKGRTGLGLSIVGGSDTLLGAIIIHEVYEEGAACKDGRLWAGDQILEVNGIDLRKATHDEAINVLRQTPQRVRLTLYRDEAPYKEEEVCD
Design: key: below the threshold = too weak to quantify, mostly under pKd 3.1 to 4
PPYRHRNTVV [ERBB4, Q15303] showed a pKd of 3.95.
For YNNCLEILRV [DCAF7, P61962], the pKd was “below the threshold”.

What follows are binders tested against T6, HTRA3, P83110 (assay: holdup assay). Conditions: plain residues with an end cap or a label only (N-terminal biotin on a linker: ado-ado).
T6 sequence (P83110 354-453, limits assumed, looked up): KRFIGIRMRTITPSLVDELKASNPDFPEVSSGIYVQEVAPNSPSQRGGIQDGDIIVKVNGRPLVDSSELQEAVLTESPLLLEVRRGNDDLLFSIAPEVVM
Design: key: below the threshold = too weak to quantify, mostly under pKd 3.1 to 4
PPYRHRNTVV [ERBB4, Q15303] was tested, and the pKd was “below the threshold”.
In the case of YNNCLEILRV [DCAF7, P61962], the pKd is reported as “below the threshold”.

These binders were tested against LAP2, Q96RT1 (assay: holdup assay). Conditions: plain residues with an end cap or a label only (N-terminal biotin on a linker: ado-ado).
Sequence of LAP2, Q96RT1 (Q96RT1 other isoform, or with tags, fused parts or gaps): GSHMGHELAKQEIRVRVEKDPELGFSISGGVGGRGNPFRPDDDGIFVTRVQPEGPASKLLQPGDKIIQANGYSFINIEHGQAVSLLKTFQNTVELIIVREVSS
Design: key: below the threshold = too weak to quantify, mostly under pKd 3.1 to 4
For PPYRHRNTVV [ERBB4, Q15303], the pKd was “below the threshold”.
In the case of YNNCLEILRV [DCAF7, P61962], the pKd is reported as “below the threshold”.

These binders were tested against Inadl_10, Q8NI35 (assay: holdup assay). Conditions: plain residues with an end cap or a label only (N-terminal biotin on a linker: ado-ado).
Sequence of Inadl_10, Q8NI35 (Q8NI35 1673-1763): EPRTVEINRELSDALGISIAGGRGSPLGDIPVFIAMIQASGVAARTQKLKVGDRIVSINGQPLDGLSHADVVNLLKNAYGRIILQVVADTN
Design: key: below the threshold = too weak to quantify, mostly under pKd 3.1 to 4
PPYRHRNTVV [ERBB4, Q15303] was tested, and the pKd was “below the threshold”.
With YNNCLEILRV [DCAF7, P61962] the pKd was “below the threshold”.

These binders were tested against IL16_1, Q14005 (assay: holdup assay). Conditions: plain residues with an end cap or a label only (N-terminal biotin on a linker: ado-ado).
Sequence of IL16_1, Q14005 (Q14005 210-306): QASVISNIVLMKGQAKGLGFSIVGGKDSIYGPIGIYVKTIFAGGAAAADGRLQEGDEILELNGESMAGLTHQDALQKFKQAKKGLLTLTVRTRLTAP
Design: key: below the threshold = too weak to quantify, mostly under pKd 3.1 to 4
For PPYRHRNTVV [ERBB4, Q15303], the pKd was “below the threshold”.
For YNNCLEILRV [DCAF7, P61962], the pKd was “below the threshold”.

These binders were tested against T7, DFNB31_1, Q9P202 (assay: holdup assay). Conditions: plain residues with an end cap or a label only (N-terminal biotin on a linker: ado-ado).
T7 sequence (Q9P202 135-233, limits assumed, looked up): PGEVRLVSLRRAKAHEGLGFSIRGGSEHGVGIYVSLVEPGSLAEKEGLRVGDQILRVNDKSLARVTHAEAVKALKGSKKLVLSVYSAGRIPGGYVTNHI
Design: key: below the threshold = too weak to quantify, mostly under pKd 3.1 to 4
PPYRHRNTVV [ERBB4, Q15303] was tested, and the pKd was 3.57.
With YNNCLEILRV [DCAF7, P61962] the pKd was “below the threshold”.

These binders were tested against T8, DLG3_1, Q92796 (assay: holdup assay). Conditions: plain residues with an end cap or a label only (N-terminal biotin on a linker: ado-ado).
T8 sequence (Q92796 125-227, limits assumed, looked up): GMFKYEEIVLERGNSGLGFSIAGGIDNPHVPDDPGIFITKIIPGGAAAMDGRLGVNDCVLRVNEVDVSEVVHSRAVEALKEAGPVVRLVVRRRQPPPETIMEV
Design: key: below the threshold = too weak to quantify, mostly under pKd 3.1 to 4
PPYRHRNTVV [ERBB4, Q15303] gave a pKd of 4.21.
With YNNCLEILRV [DCAF7, P61962] the pKd was “below the threshold”.

What follows are binders tested against Inadl_5, Q8NI35 (assay: holdup assay). Conditions: plain residues with an end cap or a label only (N-terminal biotin on a linker: ado-ado).
Sequence of Inadl_5, Q8NI35 (Q8NI35 673-780): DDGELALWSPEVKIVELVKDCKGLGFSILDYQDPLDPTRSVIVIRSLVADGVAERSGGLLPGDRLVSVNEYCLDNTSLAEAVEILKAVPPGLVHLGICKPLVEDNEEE
Design: key: below the threshold = too weak to quantify, mostly under pKd 3.1 to 4
PPYRHRNTVV [ERBB4, Q15303] showed a pKd of 3.58.
For YNNCLEILRV [DCAF7, P61962], the pKd was “below the threshold”.

These binders were tested against GORASP2, Q9H8Y8 (assay: holdup assay). Conditions: plain residues with an end cap or a label only (N-terminal biotin on a linker: ado-ado).
Design: key: below the threshold = too weak to quantify, mostly under pKd 3.1 to 4
PPYRHRNTVV [ERBB4, Q15303] gave a pKd of 4.26.
In the case of YNNCLEILRV [DCAF7, P61962], the pKd is reported as 5.55.

These binders were tested against DLG4_1, P78352 (assay: holdup assay). Conditions: plain residues with an end cap or a label only (N-terminal biotin on a linker: ado-ado).
Sequence of DLG4_1, P78352 (P78352 62-152): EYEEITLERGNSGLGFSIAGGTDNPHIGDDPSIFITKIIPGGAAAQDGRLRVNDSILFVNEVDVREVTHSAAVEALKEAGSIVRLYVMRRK
Design: key: below the threshold = too weak to quantify, mostly under pKd 3.1 to 4
PPYRHRNTVV [ERBB4, Q15303] gave a pKd of 4.88.
With YNNCLEILRV [DCAF7, P61962] the pKd was “below the threshold”.

These binders were tested against NOS1, P29475 (assay: holdup assay). Conditions: plain residues with an end cap or a label only (N-terminal biotin on a linker: ado-ado).
Sequence of NOS1, P29475 (P29475 9-101): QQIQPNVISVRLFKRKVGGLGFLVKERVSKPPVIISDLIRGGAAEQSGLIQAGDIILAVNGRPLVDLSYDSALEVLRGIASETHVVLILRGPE
Design: key: below the threshold = too weak to quantify, mostly under pKd 3.1 to 4
PPYRHRNTVV [ERBB4, Q15303] showed a pKd of 3.64.
For YNNCLEILRV [DCAF7, P61962], the pKd was “below the threshold”.

What follows are binders tested against NHERF4_4, Q86UT5 (assay: holdup assay). Conditions: plain residues with an end cap or a label only (N-terminal biotin on a linker: ado-ado).
Sequence of NHERF4_4, Q86UT5 (Q86UT5 464-550): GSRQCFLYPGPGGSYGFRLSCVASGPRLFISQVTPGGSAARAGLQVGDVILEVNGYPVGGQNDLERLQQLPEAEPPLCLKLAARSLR
Design: key: below the threshold = too weak to quantify, mostly under pKd 3.1 to 4
In the case of PPYRHRNTVV [ERBB4, Q15303], the pKd is reported as “below the threshold”.
YNNCLEILRV [DCAF7, P61962] was tested, and the pKd was “below the threshold”.

Each binder was assayed against DLG1_3, Q12959 (assay: holdup assay). Conditions: plain residues with an end cap or a label only (N-terminal biotin on a linker: ado-ado).
Sequence of DLG1_3, Q12959 (Q12959 457-571): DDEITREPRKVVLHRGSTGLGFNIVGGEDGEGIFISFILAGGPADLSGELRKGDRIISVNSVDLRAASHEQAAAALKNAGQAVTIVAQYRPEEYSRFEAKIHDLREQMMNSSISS
Design: key: below the threshold = too weak to quantify, mostly under pKd 3.1 to 4
PPYRHRNTVV [ERBB4, Q15303] was tested, and the pKd was 4.01.
For YNNCLEILRV [DCAF7, P61962], the pKd was “below the threshold”.

The binders below were run against Inadl_9, Q8NI35 (assay: holdup assay). Conditions: plain residues with an end cap or a label only (N-terminal biotin on a linker: ado-ado).
Sequence of Inadl_9, Q8NI35 (Q8NI35 1530-1615): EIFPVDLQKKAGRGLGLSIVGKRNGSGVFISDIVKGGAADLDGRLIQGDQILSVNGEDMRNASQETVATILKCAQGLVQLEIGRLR
Design: key: below the threshold = too weak to quantify, mostly under pKd 3.1 to 4
PPYRHRNTVV [ERBB4, Q15303] was tested, and the pKd was 3.53.
YNNCLEILRV [DCAF7, P61962] showed a pKd of 3.57.

The binders below were run against TJP2_1, Q9UDY2 (assay: holdup assay). Conditions: plain residues with an end cap or a label only (N-terminal biotin on a linker: ado-ado).
Sequence of TJP2_1, Q9UDY2 (Q9UDY2 24-128): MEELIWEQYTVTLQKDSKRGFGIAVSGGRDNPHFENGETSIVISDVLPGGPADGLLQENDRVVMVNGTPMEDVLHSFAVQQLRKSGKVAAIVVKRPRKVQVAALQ
Design: key: below the threshold = too weak to quantify, mostly under pKd 3.1 to 4
In the case of PPYRHRNTVV [ERBB4, Q15303], the pKd is reported as 3.81.
With YNNCLEILRV [DCAF7, P61962] the pKd was “below the threshold”.

Each binder was assayed against T9, PTPN13_1, Q12923 (assay: holdup assay). Conditions: plain residues with an end cap or a label only (N-terminal biotin on a linker: ado-ado).
T9 sequence (Q12923 1088-1188, limits assumed, looked up): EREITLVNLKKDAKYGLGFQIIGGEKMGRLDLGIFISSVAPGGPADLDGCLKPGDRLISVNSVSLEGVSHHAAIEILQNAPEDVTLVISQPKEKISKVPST
Design: key: below the threshold = too weak to quantify, mostly under pKd 3.1 to 4
For PPYRHRNTVV [ERBB4, Q15303], the pKd was “below the threshold”.
For YNNCLEILRV [DCAF7, P61962], the pKd was “below the threshold”.

These binders were tested against T10, LIN7B, Q9HAP6 (assay: holdup assay). Conditions: plain residues with an end cap or a label only (N-terminal biotin on a linker: ado-ado).
T10 sequence (Q9HAP6 88-185, limits assumed, looked up): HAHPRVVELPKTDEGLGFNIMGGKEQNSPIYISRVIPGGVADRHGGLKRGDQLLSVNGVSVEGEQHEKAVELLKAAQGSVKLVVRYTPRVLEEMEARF
Design: key: below the threshold = too weak to quantify, mostly under pKd 3.1 to 4
In the case of PPYRHRNTVV [ERBB4, Q15303], the pKd is reported as “below the threshold”.
For YNNCLEILRV [DCAF7, P61962], the pKd was “below the threshold”.

Each binder was assayed against T11, GRIP1_2, Q9Y3R0 (assay: holdup assay). Conditions: plain residues with an end cap or a label only (N-terminal biotin on a linker: ado-ado).
T11 sequence (Q9Y3R0 145-248, limits assumed, looked up): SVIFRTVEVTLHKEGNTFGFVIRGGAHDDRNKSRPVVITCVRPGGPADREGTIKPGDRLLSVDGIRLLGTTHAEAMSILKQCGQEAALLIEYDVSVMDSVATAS
Design: key: below the threshold = too weak to quantify, mostly under pKd 3.1 to 4
With PPYRHRNTVV [ERBB4, Q15303] the pKd was “below the threshold”.
In the case of YNNCLEILRV [DCAF7, P61962], the pKd is reported as “below the threshold”.

What follows are binders tested against T12, SYNJ2BP, P57105 (assay: holdup assay). Conditions: plain residues with an end cap or a label only (N-terminal biotin on a linker: ado-ado).
T12 sequence (P57105 8-110, limits assumed, looked up): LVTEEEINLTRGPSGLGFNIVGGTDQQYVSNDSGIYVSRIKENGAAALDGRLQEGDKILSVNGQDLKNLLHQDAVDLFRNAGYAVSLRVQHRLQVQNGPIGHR
Design: key: below the threshold = too weak to quantify, mostly under pKd 3.1 to 4
For PPYRHRNTVV [ERBB4, Q15303], the pKd was 4.36.
YNNCLEILRV [DCAF7, P61962] was tested, and the pKd was “below the threshold”.
